Measurements: publication PMC2716121 (Journal of molecular biology, 2009)

Assays:
Experiment in all cases: AUC
[1] = molecular target: PhoB^F20D, phosphorylated (Escherichia coli) (UniProt P0AFJ5)
[2] = molecular target: Wild-type PhoB, phosphorylated (Escherichia coli) (UniProt P0AFJ5)
[3] = molecular target: Wild-type PhoB, unphosphorylated (Escherichia coli) (UniProt P0AFJ5)
AUC = molecular target: the molecule itself

“PhoB^F20D, phosphorylated (from UniProt P0AFJ5 1-229) (natural protein)” showed a Kd [1] of 2800 nM.

Molecule “Wild-type PhoB, phosphorylated (from UniProt P0AFJ5 1-229) (natural protein)” has a Kd [2] of 5.1 µM.

Molecule “Wild-type PhoB, unphosphorylated (from UniProt P0AFJ5 1-229) (natural protein)” has a Kd [3] of 378 µM.

B1: PhoB^R91E/E111R, unphosphorylated (natural protein, Escherichia coli, UniProt P0AFJ5 1-229, looked up)
chain: MARRILVVEDEAPIREMVCFVLEQNGFQPVEAEDYDSAVNQLNEPWPDLILLDWMLPGGSGIQFIKHLKRESMTRDIPVVMLTARGEEEDEVRGLETGADDYITKPFSPKRLVARIKAVMRRISPMAVEEVIEMQGLSLDPTSHRVMAGEEPLEMGPTEFKLLHFFMTHPERVYSREQLLNHVWGTNVYVEDRTVDVHIRRLRKALEPGGHDRMVQTVRGTGYRFSTRF
B1: binds (AUC).

B2: PhoB^R91E/E111R, phosphorylated (natural protein, Escherichia coli, UniProt P0AFJ5 1-229, looked up)
chain: B1 chain
modifications: phosphorylated at D53 (site of phosphorylation) with phosphoramidate; 100% phosphorylated at steady state
B2: binds (AUC).
